Experiment [1] has as its target VEGFR2 expressed on HUVEC cells (human) (UniProt P35968). The experiment can be described thus: cell-based or functional assay.
The target of a further experiment is T1, mouse VEGFR2 (mouse, UniProt P35918 20-762, limits assumed).
T1 construct: Assay and construct of the 'further study' are not described
In words: not described ("a further study").

T1 sequence (P35918 20-762 limits assumed): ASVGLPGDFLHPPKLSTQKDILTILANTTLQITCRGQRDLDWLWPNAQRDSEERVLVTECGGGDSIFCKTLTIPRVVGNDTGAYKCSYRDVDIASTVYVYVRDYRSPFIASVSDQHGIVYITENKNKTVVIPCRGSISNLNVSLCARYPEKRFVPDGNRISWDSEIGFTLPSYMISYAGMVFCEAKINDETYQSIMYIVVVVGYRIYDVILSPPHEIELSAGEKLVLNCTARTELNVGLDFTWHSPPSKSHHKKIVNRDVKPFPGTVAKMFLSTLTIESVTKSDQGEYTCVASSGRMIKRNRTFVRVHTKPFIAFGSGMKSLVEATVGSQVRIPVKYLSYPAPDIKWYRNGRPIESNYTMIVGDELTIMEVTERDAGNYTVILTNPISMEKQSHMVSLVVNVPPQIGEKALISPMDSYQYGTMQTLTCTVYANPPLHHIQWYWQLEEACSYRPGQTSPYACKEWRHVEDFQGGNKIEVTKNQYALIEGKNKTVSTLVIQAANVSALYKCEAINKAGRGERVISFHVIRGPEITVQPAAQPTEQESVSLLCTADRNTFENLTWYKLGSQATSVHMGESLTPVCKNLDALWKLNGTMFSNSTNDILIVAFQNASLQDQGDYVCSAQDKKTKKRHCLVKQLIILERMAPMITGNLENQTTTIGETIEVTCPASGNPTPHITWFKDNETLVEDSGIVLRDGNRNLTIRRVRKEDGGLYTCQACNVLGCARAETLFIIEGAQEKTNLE
Chain of VEGFR2 expressed on HUVEC cells (human) (P35968 20-1356): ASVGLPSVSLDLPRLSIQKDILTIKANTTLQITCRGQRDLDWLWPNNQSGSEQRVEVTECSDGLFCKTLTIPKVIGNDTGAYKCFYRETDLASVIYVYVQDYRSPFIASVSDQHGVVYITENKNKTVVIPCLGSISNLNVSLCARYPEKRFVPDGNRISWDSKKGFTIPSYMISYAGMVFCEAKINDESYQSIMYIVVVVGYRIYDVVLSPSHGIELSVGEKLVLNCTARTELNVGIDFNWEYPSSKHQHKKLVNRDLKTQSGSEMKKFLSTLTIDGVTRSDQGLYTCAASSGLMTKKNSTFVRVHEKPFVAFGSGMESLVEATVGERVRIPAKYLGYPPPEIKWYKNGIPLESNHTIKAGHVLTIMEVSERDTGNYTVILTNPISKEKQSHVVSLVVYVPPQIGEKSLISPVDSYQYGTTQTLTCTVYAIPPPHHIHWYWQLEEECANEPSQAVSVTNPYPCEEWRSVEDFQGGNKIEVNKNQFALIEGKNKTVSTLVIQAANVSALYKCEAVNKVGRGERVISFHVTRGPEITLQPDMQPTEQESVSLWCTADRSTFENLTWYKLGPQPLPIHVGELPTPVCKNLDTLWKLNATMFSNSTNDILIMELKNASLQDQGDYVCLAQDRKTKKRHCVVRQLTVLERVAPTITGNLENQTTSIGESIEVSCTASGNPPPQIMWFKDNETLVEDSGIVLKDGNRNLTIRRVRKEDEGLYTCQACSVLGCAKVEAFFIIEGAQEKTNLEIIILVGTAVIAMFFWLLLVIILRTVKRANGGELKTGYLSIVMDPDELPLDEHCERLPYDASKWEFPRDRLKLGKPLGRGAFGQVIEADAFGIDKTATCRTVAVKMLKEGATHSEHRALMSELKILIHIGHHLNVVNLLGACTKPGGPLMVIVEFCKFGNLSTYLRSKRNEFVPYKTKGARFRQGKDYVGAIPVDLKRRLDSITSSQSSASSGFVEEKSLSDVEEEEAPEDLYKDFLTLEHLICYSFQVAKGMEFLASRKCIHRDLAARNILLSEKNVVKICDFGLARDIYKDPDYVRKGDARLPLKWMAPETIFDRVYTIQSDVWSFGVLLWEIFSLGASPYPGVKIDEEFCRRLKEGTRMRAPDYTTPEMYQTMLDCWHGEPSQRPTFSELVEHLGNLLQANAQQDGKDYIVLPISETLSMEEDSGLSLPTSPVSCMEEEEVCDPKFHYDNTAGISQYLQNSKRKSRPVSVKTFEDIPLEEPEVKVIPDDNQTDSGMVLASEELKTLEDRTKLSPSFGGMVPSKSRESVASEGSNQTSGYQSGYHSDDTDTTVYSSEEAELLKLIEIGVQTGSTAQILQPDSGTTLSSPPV

On to normal IgG (antibody), for which the HUVEC proliferation (VEGF-induced, cell count after 48 hours) in experiment [1] came to 1 µg/mL.

B1: AC88 anti-VEGFR2 monoclonal antibody (antibody, human IgG1, kappa, V domains shown)
VH: EVQLVESGGGLVKPGGSLRLSCAASGFTFSSYSMTWVRQAPGKGLEWVSSISSSSSYIYYADSVKGRFTISRDNAKNSLYLQMNSLRAEDTAVYYCAKATSGYMDVWGQGTTVTVSS
VL: DIQMTQSPSSLSASVGDRVTITCQASQDINNYLNWYQQKPGKAPKLLIYDASNLETGVPSRFSGSGSGTDFTLTISSLESEDIATYYCQQHVNYPLTFGGGTKVEIKR
notes: Fully human IgG1 kappa from a hybridoma; also called AC88 antibody; anti-VEGFR2 antibody
For the molecule B1, the binding result with mouse VEGFR2 was “no binding”.

The record behind these values is patent publication US20110038874A1 (SHANGHAI AOSAIERSI BIOTECH, published 2011).
